Results: US20040091503A1

Target: murine GM-CSF receptor (on FDC-P1 cells) (murine) (UniProt Q00941)
Assay: cell-based or functional assay

Chain of UniProt Q00941 (Q00941 30-388, chain 1 of 2): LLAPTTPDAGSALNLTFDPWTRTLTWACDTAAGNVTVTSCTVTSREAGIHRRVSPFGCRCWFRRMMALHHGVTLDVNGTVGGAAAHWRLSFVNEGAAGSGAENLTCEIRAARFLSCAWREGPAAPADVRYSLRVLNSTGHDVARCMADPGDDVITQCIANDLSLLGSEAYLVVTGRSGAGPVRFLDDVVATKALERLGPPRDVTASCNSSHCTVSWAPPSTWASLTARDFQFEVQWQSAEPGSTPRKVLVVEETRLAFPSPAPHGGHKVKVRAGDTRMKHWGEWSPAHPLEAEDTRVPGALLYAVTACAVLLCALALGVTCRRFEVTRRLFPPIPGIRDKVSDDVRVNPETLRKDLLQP
Chain of UniProt Q00941 (P26955 23-896, chain 2 of 2, further chain): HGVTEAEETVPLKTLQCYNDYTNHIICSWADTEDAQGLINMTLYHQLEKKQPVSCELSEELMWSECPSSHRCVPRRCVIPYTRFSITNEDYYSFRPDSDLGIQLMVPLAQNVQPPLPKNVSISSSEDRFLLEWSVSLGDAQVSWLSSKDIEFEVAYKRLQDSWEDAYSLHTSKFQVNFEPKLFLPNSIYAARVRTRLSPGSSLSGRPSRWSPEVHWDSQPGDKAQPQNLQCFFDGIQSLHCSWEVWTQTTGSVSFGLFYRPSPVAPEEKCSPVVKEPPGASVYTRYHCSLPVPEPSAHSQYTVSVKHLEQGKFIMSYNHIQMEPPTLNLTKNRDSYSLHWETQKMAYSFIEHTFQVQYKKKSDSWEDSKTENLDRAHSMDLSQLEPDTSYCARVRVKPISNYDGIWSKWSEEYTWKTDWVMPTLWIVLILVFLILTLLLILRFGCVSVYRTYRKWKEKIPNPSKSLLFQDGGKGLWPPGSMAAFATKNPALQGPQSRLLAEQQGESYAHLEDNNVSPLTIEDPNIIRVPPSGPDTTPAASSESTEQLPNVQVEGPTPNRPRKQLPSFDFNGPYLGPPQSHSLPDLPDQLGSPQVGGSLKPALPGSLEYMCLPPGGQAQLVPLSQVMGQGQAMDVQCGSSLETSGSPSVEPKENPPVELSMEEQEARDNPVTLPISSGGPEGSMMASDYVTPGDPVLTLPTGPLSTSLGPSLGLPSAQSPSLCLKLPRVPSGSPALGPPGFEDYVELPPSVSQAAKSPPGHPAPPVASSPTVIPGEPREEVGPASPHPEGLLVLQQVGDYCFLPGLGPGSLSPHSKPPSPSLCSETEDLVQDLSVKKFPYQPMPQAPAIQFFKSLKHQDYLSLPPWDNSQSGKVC

- proliferation of FDC-P1 cells (Biotrak Cell Proliferation ELISA, BrdU): 25%
Substance: GPI-GM-CSF (murine GM-CSF fused to the S. cerevesiae Gas1 GPI modification signal sequence) (from UniProt P01587 18-141; P22146 474-528) (ligand; the values are: proliferation increase over soluble GM-CSF)
